B1: Avelumab (antibody, human IgG1, lambda, V domains shown)
VH: EVQLLESGGGLVQPGGSLRLSCAASGFTFSSYIMMWVRQAPGKGLEWVSSIYPSGGITFYADTVKGRFTISRDNSKNTLYLQMNSLRAEDTAVYYCARIKLGTVTTVDYWGQGTLVTVSS
VL: QSALTQPASVSGSPGQSITISCTGTSSDVGGYNYVSWYQQHPGKAPKLMIYDVSNRPSGVSNRFSGSKSGNTASLTISGLQAEDEADYYCSSYTSSSTRVFGTGTKVTVLG
B2: 767-hIgG1 (chimeric PAL767) (antibody, V domains shown)
VH: EVQLQESGPSLVKPSQTLSLTCSVTGDSITSGYWNWIRKFPGNKLEYMGYISYTGSTYYNPSLKRRISITRDTSKNQYYLQLNSVTTEDTATYYCASQGGWLQAMDYWGQGTSVTVSS
VL: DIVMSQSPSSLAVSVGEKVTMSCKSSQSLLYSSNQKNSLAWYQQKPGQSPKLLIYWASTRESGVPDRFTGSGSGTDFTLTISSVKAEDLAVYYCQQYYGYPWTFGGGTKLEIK
B3: 785-hIgG1 (chimeric PAL785) (antibody, V domains shown)
VH: EVQLQESGPELVKPGTSVKMSCKASGYTFTSYVMHWVKQRPGQGLEWIGYINPYNDGSKYNEKFKGKATLTSDTSSSTAYMELSSLTSEDSAVYYCAKQTLDFWGQGTSVTVST
VL: DIVLTQSPASLAVSLGQRATISCRASESVEFYGTTLMQWYQQKPGQPPKLLIYAASNVESGVPARFSGSGSGTDFSLNIHPVEEGDIGMYFCQQSRKVPYTFGGGTKLEIK
B4: 788-hIgG1 (chimeric PAL788) (antibody, V domains shown)
VH: QVQLQQPGAELVKPGASVKLSCKASGYTFTSNWMNWVKQRPGRGLEWIGRIHPSDSETHYHQKFKSKATLTVDKSSSTAYIQLSSLTSEDSAVYYCAHSSGDYGRDYWGQGTTLTVSS
VL: NIVLTQSPASLAVSLGQRATISCRASESVDSYGNSFMHWYQQKPGQPPKLLIYLASNLQSGVPARFSGSGSRTDFTLTIDPVEADDAATYYCQQNNEDPWTFGGGTKLEIK
B5: 752-hIgG1 (chimeric PAL752) (antibody, V domains shown)
VH: EVQLQESGAELARPGASVKLSCKASGHAFTSDSINWVKQRIGQGLEWIGEIYPRSGNPYYNEKFKGKATLTADKSSSTAYMELRSLTSEDSAVYFCATDYYGRYFDVWGTGTTVTVSS
VL: DIQMTQSSFSFSVSLGDRVTIICKASEDIYNRLAWYQQKPGNTPRLLISGATSLETGVPSRFSGSGSGKDYTLSITSLQTEDVATYYCQQYWSTPWTFGGGTKLEIK
B6: 769-hIgG1 (chimeric PAL769) (antibody, V domains shown)
VH: EVQLQESGAELVKPGASVTLSCTASGFNIKDTYMHWVKQRPEQGLEWIGRIDPANDNTKYDPKFQDKATITADTSSDTAYLRLSSLTSEDTAVYYCAREGYGGSYGEGYWGQGTTLTVSS
VL: SIVMTQTPKFLLVSAGDRVTITCKASQSVSNDVIWYQQKPGQSPKLLIYYASIRFTGVPDRFAGSGYGTDFTFTINTVQAEDLAVYFCQQDYNSPWTFGGGTKLEIK
B7: h769-N93T (h769.T), humanized 769-hIgG1 variant (antibody, V domains shown)
VH: EVQLVQSGAEVKKPGATVKISCKVSGFNIKDTYMHWVQQAPGKGLEWMGLIDPANDNTIYAEKFQGRVTITADTSTDTAYMELSSLRSEDTAVYYCAREGYGGSYGEGYWGQGTLVTVSS
VL: EIVMTQSPPTLSLSPGERVTLSCRASQSVSNDLSWYQQKPGQAPRLLIYYASIRFTGIPARFSGSGSGTDFTLTISSLQPEDFAVYYCQQDYTSPWTFGQGTKVEIK
notes: Human IgG1
B8: 771-hIgG1 (chimeric PAL771) (antibody, V domains shown)
VH: EVQLQESGAELVKPGASVKLSCTASGFNIKDTYMHWVKQRPEQGLEWIGRIDPANGNTKYDPKFPGKATITADTSSNTAYLQLSSLTSEDAAVYYCARPFNYRFYDVYYFDYWGQGTTLTVST
VL: QIVLTQSPAIMSASPGEKVTMTCSASSSVSYMYWYQQKPGSSPRLLIYDTSNLASGVPLRFSGSGSGTSYSLTLSRMEAEDAATYYCQQWSTYPLTFGAGTKLELK

Tests used:
[1] = molecular target: T1, cynomolgus PD-L1, his tagged (cPD-L1-his) (cynomolgus (Macaca fascicularis), UniProt G7PSE7 19-238); assay: BLI (ForteBio Octet), cPD-L1-his analyte, 1:1 fit
T1 construct: also called cyPD-L1-His; Cyno PD-L1
Protocol: (§1) Characterization of chimeric anti-PD-L1 antibodies. ForteBio octet binding of purified chimeric antibodies and recombinant hPD-L1-his and cPD-L1-his was measured. Chimeric human antibodies were captured on AHC (Anti-human IgG-Capture) Biosensor, hPD-L1-his or cPD-L1-his analytes were titrated from 100 nM in a 2× series dilution. The buffer reference was subtracted from the signal and aligned to the baseline. KD, Kon and Koff values were generated using 1:1 fitting model as described above.

[2] = molecular target: T1, cynomolgus PD-L1, his tagged …; assay: BLI (ForteBio Octet), IgG on AHC sensor, cPD-L1-his analyte, 1:1 fit
Protocol: as §1

[3] = molecular target: T2, human PD-L1 expressed on cells (HCC827, NCI-H292, CHO-PD-L1, engineered CHO-K1) (human, UniProt Q9NZQ7 19-290); assay: flow cytometry on NCI-H292 cells, apparent Kd
T2 construct: whole, on cells; Endogenous on the human lung lines HCC827 and NCI-H292; transfected on CHO cells; also called PD-L1 on HCC827; PD-L1 on NCI-H292
Protocol: (§2) FIG. 14 is a graph showing binding of chimeric PD-L1 antibodies to HCC827 (FIG. 14A) and NCI-H292 (FIG. 14B) lung epithelial cell lines. Binding was measured using a FACS analysis with a […] secondary antibody. MFI=mean fluorescence intensity.
(§3) Purified chimeric antibodies were evaluated for their ability to bind PD-L1 expressed on two human cancer cell lines. HCC827 and NCI-292 cells were incubated with titrated antibodies for 30 min at 4° C. Cells were washed and incubated with AF647-labeled goat anti-human IgG(H+L) for 30 min at 4° C. Cells were washed, fixed and analyzed on FACSCelesta.

[4] = molecular target: T2, human PD-L1 expressed on cells (HCC827, …); assay: cell-based or functional assay
[5] = molecular target: T3, human PD-L1 Fc fusion (hPD-L1-Fc) (human, UniProt Q9NZQ7 19-238, limits assumed); assay: blocking ELISA: antibody titrated + biotin-hPD-1-Fc on coated hPD-L1-Fc
T3 construct: not shown: Fc part
From the text: The plate was developed with TMB and Stop buffer, the absorbance at 450 nm was read using SpectraMax plate reader. The A450 absorbance was normalized to the control that without antibody for the percentage values. The curve and IC₅₀ were generated using GraphPad Prism software.
Protein A purified chimeric antibodies were examined by size exclusion chromatography and quantified with a UV-Vis spectrophotometer (NanoDrop; mAU=milli absorbance units).

[6] = molecular target: T2, human PD-L1 expressed on cells (HCC827, …); assay: flow cytometry MFI, CHO-PD-L1 cells (10 nM) against parental CHO cells (100 nM)
Protocol: CHO cells were incubated with 100 nM antibodies and CHO-PD-L1 cells (from Bioassay) with 10 nM antibodies for 30 min at 4° C. Cells were washed and incubated with goat anti-human IgG(H+L) for 30 in at 4° C. The washed cells were fixed and run on FACSCelesta.

[7] = molecular target: T2, human PD-L1 expressed on cells (HCC827, …); assay: flow cytometry on HCC827 cells, apparent Kd
Protocol: as §2, §3

[8] = molecular target: T4, human PD-L1, his tagged (hPD-L1-his) (human, UniProt Q9NZQ7 19-238, limits assumed); assay: BLI (ForteBio Octet), IgG on AHC sensor, hPD-L1-his analyte, 1:1 fit
T4 construct: also called huPD-L1-His; recombinant human PD-L1; not shown: his tag
Protocol: as §1

[9] = molecular target: T4, human PD-L1, his tagged (hPD-L1-his); assay: BLI (ForteBio Octet), hPD-L1-his
Protocol: as §1, with “above. […]” for “above.”

[10] = molecular target: T1, cynomolgus PD-L1, his tagged …; assay: BLI (ForteBio Octet), cPD-L1-his
Protocol: as §1, with “above. […]” for “above.”

[11] = molecular target: T4, human PD-L1, his tagged (hPD-L1-his); assay: BLI (ForteBio Octet), hPD-L1-his; remark: listed apart in the source
Protocol: as §1
Selected h769 antibodies were tested in the blocking ELISA as described in Example 3 herein. […] Selected h769 humanized PD-L1 antibodies were characterized following removal of the deamidation motif in CDR-L3. FIG. 25 depicts the ForteBio octet binding of purified humanized antibodies and recombinant hPD-L1-his was measured.

[12] = molecular target: T4, human PD-L1, his tagged (hPD-L1-his); assay: BLI (ForteBio Octet), recombinant human PD-L1

T1 sequence (G7PSE7 entry or part of it limits assumed, form in doubt): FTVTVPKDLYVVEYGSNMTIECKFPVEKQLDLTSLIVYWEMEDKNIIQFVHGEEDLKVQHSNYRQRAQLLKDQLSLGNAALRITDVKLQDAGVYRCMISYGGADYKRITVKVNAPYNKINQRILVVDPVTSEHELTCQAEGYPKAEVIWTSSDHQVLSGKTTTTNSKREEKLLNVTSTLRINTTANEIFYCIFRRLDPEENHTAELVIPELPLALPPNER
T4 sequence (Q9NZQ7 19-238 limits assumed): as the sequence (G7PSE7 entry or part of it limits assumed, form in doubt) above, with T33A, S34A, N62S, Q68R, R82Q, L173F, A185T, I192T, L215H counted along it
T3 sequence (Q9NZQ7 19-238 limits assumed): as the sequence (G7PSE7 entry or part of it limits assumed, form in doubt) above, with T33A, S34A, N62S, Q68R, R82Q, L173F, A185T, I192T, L215H counted along it
T2 sequence (Q9NZQ7 19-290, change not shown): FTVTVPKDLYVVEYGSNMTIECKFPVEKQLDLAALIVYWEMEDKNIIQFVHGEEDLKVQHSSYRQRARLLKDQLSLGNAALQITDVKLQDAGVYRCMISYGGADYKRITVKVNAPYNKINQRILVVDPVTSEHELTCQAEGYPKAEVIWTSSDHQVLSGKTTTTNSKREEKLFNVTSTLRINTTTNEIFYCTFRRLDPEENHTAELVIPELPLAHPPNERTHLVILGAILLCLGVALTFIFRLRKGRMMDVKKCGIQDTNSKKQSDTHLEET

Row | Binder | Kd [2] [nM] | Kd [3] [nM] | IC50, nM (Function) [4] [nM] | IC50 [5] [nM] | Bind PD-L1-CHO/CHO [6] [x] | Kd [7] [nM] | Kd [8] [nM] | further results
1 | B1 | 0.994 |  |  |  |  |  |  | Kd [1]: 1.7 nM
2 | B2 | 0.266 | 0.23 | 0.6 | 2 | > 100 | 0.26 | 0.0522 | 
3 | B3 | 0.724 | 0.19 | 0.5 | 1.9 | > 100 | 0.29 | 1.64 | 
4 | B4 | 0.867 | 1.68 | 0.9 | 2.9 | > 100 | 1.57 | 0.043 | 
5 | B5 | 3.18 | 4.98 | 1.5 | 4.6 |  | 3.63 | 1.18 | 
6 | B6 | 0.55 | 0.12 | 0.5 | 1.6 | > 100 | 0.17 | 0.64 | Kd [9]: 2.59 nM; koff [9]: 0.000967 s⁻¹; kon [9]: 373000 M⁻¹ s⁻¹; Kd [10]: 2.92 nM; koff [10]: 0.000685 s⁻¹; kon [10]: 238000 M⁻¹ s⁻¹
7 | B7 |  |  |  |  |  |  |  | Kd [11]: 1.82 nM; koff [11]: 0.000597 s⁻¹; kon [11]: 328000 M⁻¹ s⁻¹; Kd [12]: 1.76 nM; koff [12]: 0.000629 s⁻¹; kon [12]: 357000 M⁻¹ s⁻¹
8 | B8 | 1.12 | 1.17 | 1 |  |  | 1.02 | 1.43 | 
